# Assay results taken from doi:10.1101/396861.
# T1: AtHYL1-FL (HYL1/DRB1 full length) (Arabidopsis thaliana, UniProt O04492 1-419)
# T1 sequence: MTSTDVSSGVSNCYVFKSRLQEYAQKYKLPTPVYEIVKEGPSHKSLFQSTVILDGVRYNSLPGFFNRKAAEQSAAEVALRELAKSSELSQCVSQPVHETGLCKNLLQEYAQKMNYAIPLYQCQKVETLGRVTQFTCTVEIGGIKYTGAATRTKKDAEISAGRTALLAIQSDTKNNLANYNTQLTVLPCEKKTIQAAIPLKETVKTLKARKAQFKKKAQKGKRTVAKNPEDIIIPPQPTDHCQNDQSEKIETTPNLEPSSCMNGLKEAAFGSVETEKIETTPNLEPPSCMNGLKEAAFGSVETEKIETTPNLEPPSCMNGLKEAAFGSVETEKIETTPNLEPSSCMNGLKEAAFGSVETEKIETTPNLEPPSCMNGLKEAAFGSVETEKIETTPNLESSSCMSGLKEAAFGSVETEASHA
# Biological target: T1, AtHYL1-FL (HYL1/DRB1 full length)
# Assay: EMSA
binder,measurement,value
GCCCTGCAACCGAGACCACGCTTATGGAGCCTGGGACGTGGTCTCGGTTG (structured_DNA) [50-nt DNA hairpin (dsDNA hairpin loop)],binding result,binds
